Results on 2 molecules are retold here after PMC11310338.

As usually defined, the Kd is a measure of binding affinity in units of concentration. Read a high Kd as lower affinity.

This experiment addresses phosphorylated CTD peptide (pS2pS5) of RNAP2 labeled with an NH2 terminal FITC group. As to the kind of experiment: fluorescence polarisation. In general terms: Fluorescence polarisation rises when a labelled molecule tumbles more slowly, as on binding a larger partner.

B1: SCAF8-CID domain fragment comprising residues 1-139 (domain or fragment)
chain: MEAVKTFNSELYSLNDYKPPISKAKMTQITKAAIKAIKFYKHVVQSVEKFIQKCKPEYKVPGLYVIDSIVRQSRHQFGQEKDVFAPRFSNNIISTFQNLYRCPGDDKSKIVRVLNLWQKNNVFKSEIIQPLLDMAAGIP
The molecule B1 came in with a Kd of 622 nM.

B2: Human SCAF4-CID domain fragment comprising residues 1-139 (domain or fragment)
chain: MDAVNAFNQELFSLMDMKPPISRAKMILITKAAIKAIKLYKHVVQIVEKFIKKCKPEYKVPGLYVIDSIVRQSRHQFGTDKDVFGPRFSKNITATFQYLYLCPSEDKSKIVRVLNLWQKNGVFKIEIIQPLLDMAAGTS
Take B2: the dissociation constant (Kd) was 366 nM.
